Laboratory results: a protein production outcome set (Wang et al. 2014)

Assay: label from the status in PepcDB records

Sequence	protein production
MIMLNKQGITISLCMIVRDEEETIARCLETVEKIVDEIIVVDTGSVDRTKEIVEKYTSNIYDFQWIDDFAAARNFSFSKATQEYILWLDADDVLLEDAQEALKLLKRELDPKIDAVSMPYHLAMDSNGKPLYCTKRNRLVKREKQFQWFGKVHEYLAISGEVFSSNVAITHKKEKKVTNRNLKIFQNTVAAGEELSPRDLFYYANESTDNQKYDDAVLLYETFLNQDEGWYEEKIYACGKLGDCYAKLGMWEKAIESCVKSFRYDVPRGENCTRIGYIYMEQEKYNEAIFWFKLATEVPMATESPFHSPASYTWLPYLQMCICYSRLGEQDKAYYYNELAASYVPNNAAIEYNRKYFRGVFDKPYKVLEHHHHHH	failed
MIMSKESIIFVGLFTVILSAVILMLSYTSSGQELNQYVKIEVQQGDTLWSIADQVADTKKINKNDFIEWVADKNQLQTSDIQPGDELVIPLKKKHQDAYELATVR	failed
MIPELPHAQLDWDDQGRPRSRVFDDVYFSSESGLDETRHVFIEQNRLGQRFAALADGERFVIGETGFGTGLNFLCAWQLFQQQAPTGARLHFVSVEKYPLSPADLQRALALWPELASFSAPLLEQYVAVHGGFQRIVLEGGRVILTLLIGDALEQLPQLDAQVDAWFLDGFAPAKNPDMWTAELFAELARLAAPGSTISTFTSTGWVRRLLNSAGFKMKRTPGIGHKWEVLRGEFLGWPEDAPAPARARPWFARPALGEKTALVIGGGLAGCASAASLAARGWQVQLLERHAELAREASGNPQGVLYLKLSAHGTALSQMILSGFGYTRRQLEHLQRGQDWDGCGVLQLAFNAKEAERQAQLAAAFPADLLHLLDQPQAQARAGIGLEHGGLFYPEGGWVHPPALCQWQASHPRIQVLAHREVLELRRVDEQWQAWDGDRMLASAAVVILAGAAEIKRFPASADLPLKRIRGQITRLPQTAQSQSLATVVCAEGYVAPARLGEHTLGASFDFKSQDLTPTSAEHAGNLEMLREISSDLLQRLGAEQLPLDSLQGRAAFRCTSPDYLPIVGPLADPLAFAETYAALGKDARQVPDLPCPWLDGLYINSGHGSRGLITAPLSGELLAAWLENEPLPLPRSVAEACHPNRFALRRLIRGKA	failed
MIPGMNAKQMKKMERQMKKMGMDMKDLKGVKEVIIRLEDKELVIPNAEVSLMNVMGQETYQVTGKAHEVAIDEELVIPDEDIEMVANQANVSEDEAKAALEDTNGDLAEAILKLNQ	failed
MIPLSESFESGIPAIWKTIDADGDGYNWMHLTNFTGQSGLCVSSASYIGGVGALTPDNYLITPELKLPTDALVEIIYWVCTQDLTAPSEHYAVYSSSTGNNAADFVNLLYEETLTAKRIQSPELIRGNRTQGVWYQRKVVLPNDTKYVAFRHFNSTDNFWLNLDEVSI	failed
MIPVFNITSNRGRLLQQISVGDIWGVGRQWANKLISRGIHTAYDLAMTNPHLLKKCFNAVLMRTAMELQGIACGGLEVLEHHHHHH	failed
MIPYLYVLAAAFLWGTSFVAGKIAFGVADAPLIVLARFAMAGLFWLPVFCRSVRSVPSSRWGALLLLSFLMIPATFLLQFMGLQYTSATSATLMIGFEPLMVMLVGWLIWREQMTALHLLLGTVALAGVLLVMGWPSGANFLGCLLVLLSTVVVAIWVRWSKIWMQSLSVNAFTALTTVLGTIMLIPFALFLTNDWQVNLSTQGASALLYLGVGCSLGAGWLWNMGMRSIPANAGGMFLALEPIFGVIFAVALLYEPLGATTLAGIGLVVIPVLVISVLPVLQARRLPEAC	failed
MIQAQTAAPPHAKVTAILLFTTLMWGGSFLFNKIGMREVPPVHFFFFRFALAALLMGGVCLPRLARLNRHIAVRGAVVGLALAAVNLTFVLGVSGTTISRAGYLNNLFVLFIPLLTFALWRERVDRVTFGGIALAVVGLWALASGGAEGFNQGDLLSTVCALFIAIHIIAVSRVLRDEDVYLVTFVQFVTVAAVGLVLCLVLPWPEFTIGRAGAWSLAYCALFPTVICFTLQNAYQRFTTPTRAGLIYTLDPVWSMLFGVFILGERLTPRELAGCVLILMAVAGPLLARLYLEQRHRRLYRLDGAEGT	failed
MIQEKHLTFTINLLVSLFFLTILIIPKGYNYAPIILSAIGLIYFIPLKKKLSFSSEDKKLIFSFLFYFFTFLLSIIINKDGIREIDNPSRLLLFIPLLLLFKNFPIKRKTILYAIPSSALITGCVALFQKFALGYEKPFPETMHIQMGNIAISLATFSIVITLHFFIKKQYKSTLFGFVAIILAIMTSALSGARGGWIGLPVVVGIILFLYKEFINKKLIITLIAIITIGLTALITSPKFGIEKRYNAAKSDIVSYLEKNNRNTSLGARFDMWENALIAIKEAPIFGHGSDGYDEFRHKQVKSKQMAKTTLNFGSLHNQYLESWVKRGLVGFIALILIILTPIFYFIKNLNTHNLETKCICILGIIHIVSHIFYFTSQSFLAHNSGNIFYFSAMLCFIV	failed
MIQITVVQIDNYGPWTVTPNPRRESDLQALQSRLYCDMNLQFGAHKGLAFYTRFDNIIAITNGIDLETHKRIQNSVKNRYPFTVSMAVASAETAYEAQKLATKTIQEYGSAQDDVRKEVLDVANEFVSNGYVQLAHVDINDITGKLTDLETAYDTYLSVQKTKLKLMEELKKYDSLGFFIGGDNFMCPCNGMNEKDFLCMFEDIKDSCGIELKAGIGIGKTAEDASNLADIGLEVIREGKTDSQVYTLKQEIDEQKNVPYNYMCPI	failed
MIQRTKAKVMGAPTPMAGLALGIASLGWSWENFAELHGYGQWISAGIASVLLVILATKFLLHNHLLREDLAHPVVGSVVPTFAMGTMVVSNSLGHFYPLAGDVLWLIAVVLHIVFLVSFVYHRAKDFELHHMVPSWFVPPVGIIVADVSFSGNPMLAPVAQGALTFGMVAYAIMLPMMIYRFMFTHEIPDAAKPTMAIMAAPASLSLAGYLTVTATPSPVIIAMLFGIAVLMTAIIYLAFFKLLRLPFSPGYAAFTFPMVIGATALFKMANWMELQGLAAHYVQQVRGLAGLELIVATFVVSYVALQYINNLLIQPRLMHAHHA	not failed
MIQSQINRNIRLDLADAILLSKAKKDLSFAEIADGTGLAEAFVTAALLGQQALPADAARLVGAKLDLDEDSILLLQMIPLRGCIDDRIPTDPTMYRFYEMLQVYGTTLKALVHEKFGDGIISAINFKLDVKKVADPEGGERAVITLDGKYLPTKPF	not failed
MIRALSMHLLDRLTIRLFHDERQKQFSGDHARSLGWSSTESQFLRFKTMTQAINFEQKTVLDLGCGYGDFKTFLDMSCCIKSYTGVDQQSSFIKQAKSLFKHHTNCEFIKADFSATTLPKADIVVASGSLNYRARNKTYHAKVIKEMYERAEEAVIFNLLNSEHFTSSSLLEAHDPQQVLKYCLSFCPDSELITDYANEDFTIVMRHSNSSKLEHHHHHH	not failed
MIREKALEFHKNNFPGNGKIEVIPKVSLESREELTLAYTPGVAEPCKEIARDPGKVYEYTSKGNLVAVVSDGSRILGLGNIGPLAGLPVMEGKALLFKRFGGVDAFPIMIKEQEPNKFIDIVKAIAPTFGGINLEDIASPKCFYILERLREELDIPVFHDDQQGTAAVVLAGLLNALKVVGKKISEITLALFGAGAAGFATLRILTEAGVKPENVRVVELVNGKPRILTSDLDLEKLFPYRGWLLKKTNGENIEGGPQEALKDADVLISFTRPGPGVIKPQWIEKMNEDAIVFPLANPVPEILPEEAKKAGARIVATGRSDYPNQINNLLGFPGIFRGALDVRARTITDSMIIAAAKAIASIVEEPSEENIIPSPLNPIVYAREARAVAEEAMKEGVARTKVKGEWVEEHTIRLIEFYENVIAPINKKRREYSKAITRA	not failed
MIRFTMMPGEDGDCLLLEYGDGTFLRRILLDGGRSGTYPRIRPTLAGLDGLVDVLVVTHVDQDHLLGVLALLNDPDRSVEFGDVWFNGFDHLLEFEGFGAQDGEKLTSALVEQKLPWNDAFGGLSVEVGRELVWFDDGSTVDVLSPDRGQLESLAPDWVKECAKHGLIPGRDPDEIPLVPGFEHFGGVNVEELAARPFRPDTSKTNLTSIGLLFEFEGKRIILTGDADDRRLVRSIRPRAEAEGGRLHVDVLKVAHHGSDHNLSKDLLDLIDCDRYLISTSGARHDHPNAIAVARILKHGGAKKEIVFNYRDRAAIWDVDSLKDRFGYTVTAPAPDAEDGFVSFEL	failed
MIRLGKMSDLDQILNLVEEAKELMKEHDNEQWDDQYPLLEHFEEDIAKDYLYVLEENDKIYGFIVVDQDQAEWYDDIDWPVNREGAFVIHRLTGSKEYKGAATELFNYVIDVVKARGAEVILTDTFALNKPAQGLFAKFGFHKVGEQLMEYPPYDKGEPFYAYYKNLKE	failed
MIRVLFFIRMTMSRTIQRICLFLFCLPVFGSCMKWDYGEMEDFSVSASGLFITNEGNFQYSNATLSYYDPATCEVENEVFYRANGFKLGDVAQSMVIRDGIGWIVVNNSHVIFAIDINTFKEVGRITGFTSPRYIHFLSDEKAYVTQIWDYRIFIINPKTYEITGYIECPDMDMESGSTEQMVQYGKYVYVNCWSYQNRILKIDTETDKVVDELTIGIQPTSLVMDKYNKMWTITDGGYEGSPYGYEAPSLYRIDAETFTVEKQFKFKLGDWPSEVQLNGTRDTLYWINNDIWRMPVEADRVPVRPFLEFRDTKYYGLTVNPNNGEVYVADAIDYQQQGIVYRYSPQGKLIDEFYVGIIPGAFCWK	failed
MISDIRKDAEVRMDKCVEAFKTQISKIRTGRASPSLLDGIVVEYYGTPTPLRQLASVTVEDSRTLKINVFDRSMSPAVEKAIMASDLGLNPNSAGSDIRVPLPPLTEERRKDLTKIVRGEAEQARVAVRNVRRDANDKVKALLKDKEISEDDDRRSQDDVQKLTDAAIKKIEAALADKEAELMQF	not failed
MISDLPDDLESEILSRVPTKSLAKLQTMGNTRLVVWDSSTGETRWIKPRTRFRNDDYYGLGYVNSKSSGHSFKILRSCYYRNDQKQWVAEFEIYEFGSDTWRVLDYFTHDYGVFSSGGPLKRNTYWVAGDKEMGMFMLYFDFTRERFGHFPLPFKSFNREDTASLSVVREEKLSVLHQKILEFSNEMKIWLTNKIDETIELSWSNFVLTVDYDKFNLPSVVNVASFLLDEENKVAVCSDIDVDDENRTRVYVVGEDIYKQVYKDTTKASYFNCSTSCSIYW	failed
MISGFESIQLTTLILIVVAGFAAGWVDAVVGGGGLIQLPALLLVPGITPVQALATNKMGSIFGTTTSAVTYYRRVGPDLKTAVPMAVIALAGSFGGAILAASLPASVFKPIIVLALIAVAIFTALRPGAGELTALRHDGHKHYVVACLIGAVIGFYDGLIGPGTGSFLVIALVSAMGYAFLEASAKAKIVNMATNAGALIFFLPHGSLLWGVGLILGLANMAGGYLGARTAVARGSKFVRLVFLMVVAALIIKLGMDVWNENFAA	failed
MISGNTINHKNNMAGLKSLVKDTALYGLSSMVGRFLNYLLVPLYTAVLPAASGGYGVVTNVYAWAGLIMVLLTFGMETGFFRFANKSEEDPVKVYANSLISVGGISLIFAILCLTFLQPVSHLLEYGDHPDFIGMMIIVMALDAFLCIPFAYLRFKKRPIKFVAIKFVSIIANIVLNLFFLLLCPWLHEHFPAWVDWFYNPTYLVGYIFVSNLITTCLQLFCLIPELRGFAYRVDKQLLKRMLIYSFPILIFGLVGILNQTVDKIIYPFLFADRQEGLVQLGIYGAATKIAMVMAMFTQAFRYAYEPFVFGKQKEGDNRRMYAQAMKYFLIFAMFAFLVVMFYLDLLRYMVAPDYWAGLSVVAIVIGAEIFKGIYFNLSFWYKLIDETRWGAYFSIVGCVIIVGMNVMLVPTYGFVASAWASVAGYAVITILSYWIGQKKYPIHYDLKHLGTYVLFTAVLYVIGEWVPIENIVLRLAFRTVLLLIFMAYVVRKDLPLSQIPVINRIIKKK	failed
MISLPYLQRFALSGQVALVTGSARGLGLRIAQALAGSGAHVLLNGRDAHAVEAAVSDLRQQGLRASALPFDVSDEQATEQAFARIDAEHGRLDILVNNVGARNRKPLAETSPAEIRAMMDTNLVAGILLARLAAQRMVRQRYGRLIAITSVAGELARANDAVYPAAKQGLTGMMRALAVEFGRHGITSNAIAPGAFATETNAAMANDPQAGAAMAARNPTGRWGDPEEIAGAAVFLASPAASYVNGHVLVVDGGLSVQF	failed
